How the values were obtained:
[1] = Preliminary tests of FF58 resistance to radiation stress; assay type: physicochemical
Method: Additional tests were performed in order to evaluate the radiolysis also in more stressful conditions such as 40° C. storage temperature and rolling, decreasing antioxidant agent (sodium ascorbate and gentisic acid) amounts. The radiochemical purity (RCP) was monitored at release time and at expiration time by Radio-RP-HPLC.

WM266 melanoma tumor = tested on: WM266 melanoma tumor; design: species or system mice; conditions: mouse, in vivo
Method: Nude, male and female athymic mice bearing the WM266 melanoma tumor were intravenously injected with ^68Ga-Compound (˜100-150/uCi 320-480 pmol for males, ˜100-150 uCi/127-191 pmol for females, corresponding to 3.7-5.55 MBq). Animals were sacrificed in groups of four at 30 min, 1 h, 2 h and 4 h post injection. Tumor and organs of interest were collected, weighed and measured for radioactivity with a gamma-counter. The intestines and stomach were not emptied of their contents. Data were calculated as a percentage of the injected dose per gram of tissue (% ID/g).

αvβ3 = αvβ3 (Homo sapiens, UniProt P05106+P06756); assay: Affinity for αvβ3 (preclinical data, summary statement); assay type: binding
Chain of αvβ3 (P06756 31-889 limits assumed): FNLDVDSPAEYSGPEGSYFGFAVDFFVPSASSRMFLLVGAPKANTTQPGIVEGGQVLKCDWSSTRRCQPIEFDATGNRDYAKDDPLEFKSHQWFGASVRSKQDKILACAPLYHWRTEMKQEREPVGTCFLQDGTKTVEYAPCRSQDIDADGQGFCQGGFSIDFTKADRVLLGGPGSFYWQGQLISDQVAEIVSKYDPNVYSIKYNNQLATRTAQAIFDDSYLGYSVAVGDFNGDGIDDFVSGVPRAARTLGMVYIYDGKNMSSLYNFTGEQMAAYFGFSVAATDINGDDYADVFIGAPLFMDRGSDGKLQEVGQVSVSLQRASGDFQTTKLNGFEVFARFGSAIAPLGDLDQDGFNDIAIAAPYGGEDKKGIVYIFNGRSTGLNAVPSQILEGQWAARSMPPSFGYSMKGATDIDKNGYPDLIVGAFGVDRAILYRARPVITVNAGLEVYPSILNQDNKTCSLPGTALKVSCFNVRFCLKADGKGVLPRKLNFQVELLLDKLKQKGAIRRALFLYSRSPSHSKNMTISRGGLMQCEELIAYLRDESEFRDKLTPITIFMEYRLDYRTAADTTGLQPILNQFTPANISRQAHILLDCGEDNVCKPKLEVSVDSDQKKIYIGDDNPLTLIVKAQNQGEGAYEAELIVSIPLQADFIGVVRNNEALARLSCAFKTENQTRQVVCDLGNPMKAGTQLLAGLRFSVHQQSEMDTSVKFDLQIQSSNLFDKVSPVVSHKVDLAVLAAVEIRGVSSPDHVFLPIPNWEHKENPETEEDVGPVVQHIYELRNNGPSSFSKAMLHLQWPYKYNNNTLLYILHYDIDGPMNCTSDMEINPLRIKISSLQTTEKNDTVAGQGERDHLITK
Chain of αvβ3 (P06756 891-1048 partner limits assumed): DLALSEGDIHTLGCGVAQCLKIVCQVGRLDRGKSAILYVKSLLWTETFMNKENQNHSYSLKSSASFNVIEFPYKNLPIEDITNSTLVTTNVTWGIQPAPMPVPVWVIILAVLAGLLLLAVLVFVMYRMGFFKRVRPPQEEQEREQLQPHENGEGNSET
Chain of αvβ3 (P05106 27-788): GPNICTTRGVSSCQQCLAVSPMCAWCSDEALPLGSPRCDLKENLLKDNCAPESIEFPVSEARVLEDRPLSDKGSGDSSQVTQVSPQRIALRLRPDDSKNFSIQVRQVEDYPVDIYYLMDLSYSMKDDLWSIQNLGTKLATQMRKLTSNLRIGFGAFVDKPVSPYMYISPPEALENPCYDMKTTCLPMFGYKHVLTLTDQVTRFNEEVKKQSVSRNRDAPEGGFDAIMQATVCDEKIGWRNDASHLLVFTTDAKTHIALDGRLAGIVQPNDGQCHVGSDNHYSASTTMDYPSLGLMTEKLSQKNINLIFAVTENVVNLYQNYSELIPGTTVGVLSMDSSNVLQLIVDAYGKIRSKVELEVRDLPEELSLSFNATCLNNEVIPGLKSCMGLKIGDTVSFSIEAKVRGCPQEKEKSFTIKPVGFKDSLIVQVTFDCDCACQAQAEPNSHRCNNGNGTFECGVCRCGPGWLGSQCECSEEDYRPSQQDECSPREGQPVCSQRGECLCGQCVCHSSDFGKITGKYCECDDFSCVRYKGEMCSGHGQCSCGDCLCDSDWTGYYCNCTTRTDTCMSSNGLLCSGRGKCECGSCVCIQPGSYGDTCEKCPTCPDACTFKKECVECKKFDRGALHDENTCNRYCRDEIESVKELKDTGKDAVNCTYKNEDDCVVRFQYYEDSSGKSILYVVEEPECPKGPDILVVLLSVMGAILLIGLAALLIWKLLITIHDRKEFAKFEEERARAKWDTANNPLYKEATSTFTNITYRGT

αvβ5 = αvβ5 (Homo sapiens, UniProt P06756+P18084); assay: Affinity for αvβ5 (preclinical data, summary statement); assay type: binding
Chain of αvβ5 (P06756 31-889 limits assumed): as the sequence (P06756 31-889 limits assumed) above
Chain of αvβ5 (P06756 891-1048 partner limits assumed): as the sequence (P06756 891-1048 partner limits assumed) above
Chain of αvβ5 (P18084 24-799): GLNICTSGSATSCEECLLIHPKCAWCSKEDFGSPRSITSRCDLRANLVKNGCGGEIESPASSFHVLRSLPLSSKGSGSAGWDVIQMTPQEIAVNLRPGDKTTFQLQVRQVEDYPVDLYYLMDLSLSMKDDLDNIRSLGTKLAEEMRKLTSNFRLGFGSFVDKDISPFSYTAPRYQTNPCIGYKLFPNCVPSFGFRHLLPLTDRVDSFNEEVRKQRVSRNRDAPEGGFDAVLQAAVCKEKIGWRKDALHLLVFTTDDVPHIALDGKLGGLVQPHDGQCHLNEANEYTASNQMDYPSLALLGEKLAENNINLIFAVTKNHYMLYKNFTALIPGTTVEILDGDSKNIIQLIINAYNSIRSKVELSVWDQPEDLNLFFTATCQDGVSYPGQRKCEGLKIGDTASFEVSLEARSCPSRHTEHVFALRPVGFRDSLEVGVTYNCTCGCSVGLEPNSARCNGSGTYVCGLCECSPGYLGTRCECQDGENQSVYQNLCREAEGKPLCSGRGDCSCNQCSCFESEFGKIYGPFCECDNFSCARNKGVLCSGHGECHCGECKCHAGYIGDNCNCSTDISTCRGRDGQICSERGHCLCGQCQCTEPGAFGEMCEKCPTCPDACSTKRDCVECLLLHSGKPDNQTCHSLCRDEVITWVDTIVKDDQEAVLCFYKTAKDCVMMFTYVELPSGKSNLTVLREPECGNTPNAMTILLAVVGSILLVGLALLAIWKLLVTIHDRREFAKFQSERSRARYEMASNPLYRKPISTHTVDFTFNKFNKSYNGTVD

other receptors = assay: Affinity for other receptors (preclinical data, summary statement); assay type: binding

affinity for αvβ3 (αvβ3) | affinity for αvβ5 (αvβ5) | affinity for other receptors (other receptors) | SMILES | resistance to the radiation stress [1] | background uptake in normal organs (WM266 melanoma tumor) | excretion (uptake in the kidneys and intestine) (WM266 melanoma tumor)
 |  |  | Cc1cc(OCCCC(=O)NCCNC(=O)[C@H](CS(=O)(=O)O)NC(=O)CN2CCN(CC(=O)O)CCN(CC(=O)O)CCN(CC(=O)O)CC2)cc(C)c1S(=O)(=O)NC(CNC(=O)CCCCc1ccc2c(n1)NCCC2)C(=O)O (stereo partly drawn) [FF58] | good resistance to the radiation stress |  | 
high affinity | high affinity | absence of affinity | Cc1cc(OCCCC(=O)NCCNC(=O)[C@H](CS(=O)(=O)O)NC(=O)CN2CCN(CC(=O)O)CCN(CC(=O)O)CCN(CC(=O)O)CC2)cc(C)c1S(=O)(=O)NC(CNC(=O)CCCCc1ccc2c(n1)NCCC2)C(=O)O (single isomer, unassigned) [^68Ga-Compound, metal not drawn] |  | cleared moderately by 4 h | renal and partial hepatic excretion

Reference: patent US20240050597A1, “RADIOLABELLED ALPHA-V BETA-3 AND/OR ALPHA-V BETA-5 INTEGRINS ANTAGONIST FOR USE AS THERAGNOSTIC AGENT” (ADVANCED ACCELERATOR APPLICATIONS INTERNATIONAL SA, priority 2020, published 2024)
